These results are taken from FireProtDB (doi:10.1074/jbc.m102741200).

B1: Alpha-amylase, P29957 (parent)
chain: MKLNKIITTAGLSLGLLLPSIATATPTTFVHLFEWNWQDVAQECEQYLGPKGYAAVQVSPPNEHITGSQWWTRYQPVSYELQSRGGNRAQFIDMVNRCSAAGVDIYVDTLINHMAAGSGTGTAGNSFGNKSFPIYSPQDFHESCTINNSDYGNDRYRVQNCELVGLADLDTASNYVQNTIAAYINDLQAIGVKGFRFDASKHVAASDIQSLMAKVNGSPVVFQEVIDQGGEAVGASEYLSTGLVTEFKYSTELGNTFRNGSLAWLSNFGEGWGFMPSSSAVVFVDNHDNQRGHGGAGNVITFEDGRLYDLANVFMLAYPYGYPKVMSSYDFHGDTDAGGPNVPVHNNGNLECFASNWKCEHRWSYIAGGVDFRNNTADNWAVTNWWDNTNNQISFGRGSSGHMAINKEDSTLTATVQTDMASGQYCNVLKGELSADAKSCSGEVITVNSDGTINLNIGAWDAMAIHKNAKLNTSSASSTESDWQRTVIFINAQTQSGQDMFIRGGIDHAYANANLGRNCQTSNFECAMPIRHNNLKNVTTSPWKANDNYLDWYGIENGQSSEAEGSATDWTTNVWPAGWGAEKTVNTDGFGVTPLNIWGEHYWMLDVDMDCSKAVNGWFELKAFIKNGQGWETAIAQDNAPYTSTNHMAQCGKINKFEFNNSGVVIRSF

Where “and” joins values, the source holds several entries; their conditions need not be identical. Equal values may be shown once.

In one data set the parent is B1. The following applies: Pseudoalteromonas haloplanktis; pH 7.2; Thermal; DSC; MOPS 30 mM; NaCl 50 mM; reversible: yes(91 %); structure 1AQH; whole UniProt chain shown.
On to N174D V220F, for which the Tm was determined as 46.4 °C, the “unfolding enthalpy (calorimetric)” value was 272 kcal/mol and the “unfolding enthalpy (van 't Hoff)” value worked out at 271 kcal/mol.

The data set is the same for the next values; noted with them: Pseudoalteromonas haloplanktis; pH 7.2; Thermal; DSC; MOPS 30 mM; NaCl 50 mM; transition: 3; reversible: yes(30 %); structure 1AQH; whole UniProt chain shown.
Turning to N312V, the “unfolding enthalpy (calorimetric)” value is 88 kcal/mol and 59 kcal/mol; the “unfolding enthalpy (van 't Hoff)” value was 133 kcal/mol and 114 kcal/mol.

Staying with this data set, now noted: Pseudoalteromonas haloplanktis; pH 7.2; Thermal; DSC; MOPS 30 mM; NaCl 50 mM; transition: 3; reversible: yes(95 %); structure 1AQH; whole UniProt chain shown.
For the variant M403V, the “unfolding enthalpy (calorimetric)” value is 127 kcal/mol and 84 kcal/mol; the “unfolding enthalpy (van 't Hoff)” value is 96 kcal/mol and 137 kcal/mol.

The same data set, now with this note: Pseudoalteromonas haloplanktis; pH 7.2; Thermal; DSC; MOPS 30 mM; NaCl 50 mM; reversible: yes(76 %); structure 1AQH; whole UniProt chain shown.
For E303W, the midpoint of thermal melting (Tm) stood at 41.4 °C, the “unfolding enthalpy (calorimetric)” value came out at 186 kcal/mol and the “unfolding enthalpy (van 't Hoff)” value is 234 kcal/mol.

Staying with this data set, now noted: Pseudoalteromonas haloplanktis; pH 7.2; Thermal; DSC; MOPS 30 mM; NaCl 50 mM; transition: 3; reversible: yes(64 %); structure 1AQH; whole UniProt chain shown.
With Q188I, the melting temperature (Tm) is 42.7 °C and 45.2 °C; the “unfolding enthalpy (calorimetric)” value was 87 kcal/mol and 117 kcal/mol; the “unfolding enthalpy (van 't Hoff)” value is 117 kcal/mol and 240 kcal/mol.

The same data set, now with this note: Pseudoalteromonas haloplanktis; pH 7.2; Thermal; DSC; MOPS 30 mM; NaCl 50 mM; reversible: yes(25 %); structure 1AQH; whole UniProt chain shown.
For N36R, the melting temperature (Tm) is 43.3 °C, the “unfolding enthalpy (calorimetric)” value was found to be 193 kcal/mol and the “unfolding enthalpy (van 't Hoff)” value was 231 kcal/mol.

Staying with this data set, now noted: Pseudoalteromonas haloplanktis; pH 7.2; Thermal; DSC; MOPS 30 mM; NaCl 50 mM; reversible: yes(81 %); structure 1AQH; whole UniProt chain shown.
As to L243R, the Tm came to 42.5 °C, the “unfolding enthalpy (calorimetric)” value was 217 kcal/mol and the “unfolding enthalpy (van 't Hoff)” value stood at 187 kcal/mol.

The data set is the same for the next values; noted with them: Pseudoalteromonas haloplanktis; pH 7.2; Thermal; DSC; MOPS 30 mM; NaCl 50 mM; reversible: yes(97 %); structure 1AQH; whole UniProt chain shown.
On to N174D, for which the Tm turned out to be 44.8 °C, the “unfolding enthalpy (calorimetric)” value was determined as 271 kcal/mol and the “unfolding enthalpy (van 't Hoff)” value turned out to be 240 kcal/mol.

The data set is the same for the next values; noted with them: Pseudoalteromonas haloplanktis; pH 7.2; Thermal; DSC; MOPS 30 mM; NaCl 50 mM; reversible: yes(96 %); structure 1AQH; whole UniProt chain shown.
For the variant R88E, the midpoint of thermal melting (Tm) was 42.6 °C, the “unfolding enthalpy (calorimetric)” value came to 236 kcal/mol and the “unfolding enthalpy (van 't Hoff)” value worked out at 112 kcal/mol.

The data set is the same for the next values; noted with them: Pseudoalteromonas haloplanktis; pH 7.2; Thermal; DSC; MOPS 30 mM; NaCl 50 mM; transition: 3; reversible: yes(85 %); structure 1AQH; whole UniProt chain shown.
Turning to T256V, the Tm was 42.7 °C and 45.7 °C; the “unfolding enthalpy (calorimetric)” value is 102 kcal/mol and 104 kcal/mol; the “unfolding enthalpy (van 't Hoff)” value was 114 kcal/mol and 202 kcal/mol.

The data set is the same for the next values; noted with them: Pseudoalteromonas haloplanktis; pH 7.2; Thermal; DSC; MOPS 30 mM; NaCl 50 mM; transition: 3; reversible: yes(51 %); structure 1AQH; whole UniProt chain shown.
Turning to Q188I V220F, the Tm is 44.7 °C, the “unfolding enthalpy (calorimetric)” value came out at 83 kcal/mol and the “unfolding enthalpy (van 't Hoff)” value is 121 kcal/mol.

The same data set, now with this note: Pseudoalteromonas haloplanktis; pH 7.2; Thermal; DSC; MOPS 30 mM; NaCl 50 mM; reversible: yes(60 %); structure 1AQH; whole UniProt chain shown.
As for V220F, the midpoint of thermal melting (Tm) came out at 45.4 °C, the “unfolding enthalpy (calorimetric)” value was determined as 234 kcal/mol and the “unfolding enthalpy (van 't Hoff)” value came to 296 kcal/mol.
